Substrate in this data set: CCCCCCCCCCCC(=O)O
In words: MTAN/LuxS-coupled DTNB colorimetric methyltransferase assay. The data set is classed as biochemical, Drosophila melanogaster. The note with it: 500 μM SAM, 50 mM potassium phosphate pH 8.0, 30 °C, 3 μM enzyme, 5–200 μM lauric acid.

For orientation: Km means the substrate concentration at which the rate is half of its maximum. Broadly, the kcat is the maximal rate divided by the concentration of active sites.

B1: DmJHAMT (Drosophila melanogaster) (protein)
chain: MNQASLYQHANQVQRHDAKLILDEFASTMQWRSDGEDALLDVGSGSGNVLMDFVKPLLPIRGQLVGTDISSQMVHYASKHYQREERTRFQVLDIGCERLPEELSGRFDHVTSFYCLHWVQNLKGALGNIYNLLKPEGGDCLLAFLASNPVYEVYKILKTNDKWSTFMQDVENFISPLHYSLSPGEEFSQLLNDVGFVQHNVEIRNEVFVYEGVRTLKDNVKAICPFLERMPADLHEQFLDDFIDIVISMNLQQGENNEDQKFLSPYKLVVAYARKTPEFVNNVFLEPTHQNLVKGIN
notes: primers encode N-terminus MNQASLYQH and C-terminus QNLVKGIN-stop
Regarding B1, the Km was 59 µM and the kcat was 0.0025 s⁻¹.
